tested on: Escherichia coli TOP10; experiment: shrunken log2 fold change of peptide-encoding DNA abundance (4.5 h post-induction vs induction); higher = less antimicrobial activity (less host growth inhibition); conditions: time post-induction: 4.5 h; library: site-saturation at positions 5, 18, 19, 20
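Further: peptides expressed intracellularly from a pBAD plasmid library in pooled LB shake-flask culture, induced with 0.3% L-arabinose, DNA abundance read by NGS, three biological replicates, DESeq2 with apeglm shrinkage.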

Row | Sequence | shrunken log2 fold change
1 | RRIRVRPPRLPRPRPRPAIDPRP | 0.0602
2 | RRIRERPPRLPRPRPRPHENPRP | -0.365
3 | RRIRDRPPRLPRPRPRPNGDPRP | -0.00931
4 | RRIRSRPPRLPRPRPRPKQVPRP | 0.0497
5 | RRIRNRPPRLPRPRPRPGWVPRP | 0.282
6 | RRIRHRPPRLPRPRPRPYRWPRP | -0.00879
7 | RRIRTRPPRLPRPRPRPENNPRP | -0.267
8 | RRIRLRPPRLPRPRPRPFLCPRP | -0.353
9 | RRIRGRPPRLPRPRPRPTCFPRP | 1.14
10 | RRIRDRPPRLPRPRPRPANFPRP | 0.0245
11 | RRIRWRPPRLPRPRPRPVTHPRP | -0.0273
12 | RRIRFRPPRLPRPRPRPQMCPRP | -0.119
13 | RRIRCRPPRLPRPRPRPILVPRP | -0.0457
14 | RRIRVRPPRLPRPRPRPRYIPRP | -0.458
15 | RRIRGRPPRLPRPRPRPMYQPRP | -0.0304
16 | RRIRCRPPRLPRPRPRPSHVPRP | -0.387
17 | RRIRVRPPRLPRPRPRPPQMPRP | 0.236
18 | RRIRGRPPRLPRPRPRPKDSPRP | 0.244
19 | RRIRLRPPRLPRPRPRPEVKPRP | -0.108
20 | RRIRIRPPRLPRPRPRPEGDPRP | 0.574
21 | RRIRTRPPRLPRPRPRPLPNPRP | 0.203
22 | RRIRTRPPRLPRPRPRPRSIPRP | -0.122
23 | RRIRERPPRLPRPRPRPNGHPRP | 0.0479
24 | RRIRRRPPRLPRPRPRPRYVPRP | 0.147
25 | RRIRGRPPRLPRPRPRPQASPRP | 1.03

Row | Sequence | shrunken log2 fold change
26 | RRIRGRPPRLPRPRPRPQETPRP | -0.0108
27 | RRIRCRPPRLPRPRPRPPIYPRP | -0.253
28 | RRIRVRPPRLPRPRPRPGGDPRP | 0.0318
29 | RRIRNRPPRLPRPRPRPYLNPRP | -0.487
30 | RRIRCRPPRLPRPRPRPGKEPRP | -0.0657
31 | RRIRCRPPRLPRPRPRPTFMPRP | -0.513
32 | RRIRDRPPRLPRPRPRPGGYPRP | 0.101
33 | RRIRPRPPRLPRPRPRPVQNPRP | -0.234
34 | RRIRMRPPRLPRPRPRPAQTPRP | 0.00383
35 | RRIRQRPPRLPRPRPRPNKHPRP | -0.622
36 | RRIRVRPPRLPRPRPRPLPVPRP | 0.0196
37 | RRIRFRPPRLPRPRPRPFCGPRP | -0.0609
38 | RRIRNRPPRLPRPRPRPAKCPRP | -0.384
39 | RRIRQRPPRLPRPRPRPQKPPRP | 0.0718
40 | RRIRPRPPRLPRPRPRPREPPRP | 0.0876
41 | RRIRRRPPRLPRPRPRPEDWPRP | 0.791
42 | RRIRGRPPRLPRPRPRPGKKPRP | -0.0917
43 | RRIRPRPPRLPRPRPRPLISPRP | -0.17
44 | RRIRGRPPRLPRPRPRPHGFPRP | 0.422
45 | RRIRIRPPRLPRPRPRPYAIPRP | -0.0122
46 | RRIRQRPPRLPRPRPRPSFGPRP | 0.0622
47 | RRIRLRPPRLPRPRPRPDMEPRP | 0.0384
48 | RRIRERPPRLPRPRPRPVFTPRP | -0.541
49 | RRIRWRPPRLPRPRPRPMLVPRP | 0.288
50 | RRIRWRPPRLPRPRPRPFQRPRP | 0.00938

Row | Sequence | shrunken log2 fold change
51 | RRIRMRPPRLPRPRPRPDTHPRP | 0.18
52 | RRIRGRPPRLPRPRPRPVEMPRP | 0.556
53 | RRIRRRPPRLPRPRPRPPSIPRP | -0.212
54 | RRIRPRPPRLPRPRPRPKIMPRP | -0.437
55 | RRIRHRPPRLPRPRPRPYAYPRP | -0.596
56 | RRIRLRPPRLPRPRPRPLLHPRP | -0.0703
57 | RRIRMRPPRLPRPRPRPTFDPRP | 0.558
58 | RRIRGRPPRLPRPRPRPPCTPRP | 0.76
59 | RRIRARPPRLPRPRPRPEIMPRP | 0.43
60 | RRIRVRPPRLPRPRPRPEKFPRP | -0.208
61 | RRIRKRPPRLPRPRPRPHIFPRP | -0.0478
62 | RRIRHRPPRLPRPRPRPEYMPRP | -0.05
63 | RRIRMRPPRLPRPRPRPSVYPRP | -0.335
64 | RRIRQRPPRLPRPRPRPNHIPRP | -0.526
65 | RRIRIRPPRLPRPRPRPALSPRP | 0.114
66 | RRIRGRPPRLPRPRPRPMPGPRP | 0.479
67 | RRIRRRPPRLPRPRPRPLFNPRP | -0.162
68 | RRIRCRPPRLPRPRPRPRTQPRP | 0.323
69 | RRIRHRPPRLPRPRPRPNQDPRP | -0.337
70 | RRIRDRPPRLPRPRPRPDSHPRP | 0.0162
71 | RRIRHRPPRLPRPRPRPWDIPRP | 0.0726
72 | RRIRNRPPRLPRPRPRPGLCPRP | 0.685
73 | RRIRPRPPRLPRPRPRPVNPPRP | 0.0675
74 | RRIRLRPPRLPRPRPRPYAPPRP | -0.329
75 | RRIRHRPPRLPRPRPRPNFRPRP | -0.144

Row | Sequence | shrunken log2 fold change
76 | RRIRNRPPRLPRPRPRPNEEPRP | -0.00613
77 | RRIRVRPPRLPRPRPRPSINPRP | -0.243
78 | RRIRNRPPRLPRPRPRPGGQPRP | 0.0599
79 | RRIRFRPPRLPRPRPRPRPNPRP | 0.4
80 | RRIRARPPRLPRPRPRPNYAPRP | -0.0399
81 | RRIRKRPPRLPRPRPRPFSGPRP | -0.172
82 | RRIRIRPPRLPRPRPRPHKSPRP | -1.18
83 | RRIRVRPPRLPRPRPRPNYEPRP | -0.0505
84 | RRIRVRPPRLPRPRPRPPGRPRP | 0.593
85 | RRIRYRPPRLPRPRPRPKCNPRP | -0.533
86 | RRIRERPPRLPRPRPRPYTEPRP | 0.0251
87 | RRIRLRPPRLPRPRPRPWPHPRP | 0.0514
88 | RRIRDRPPRLPRPRPRPDFMPRP | 0.161
89 | RRIRRRPPRLPRPRPRPHQSPRP | 0.128
90 | RRIRQRPPRLPRPRPRPCTCPRP | -0.0638
91 | RRIRWRPPRLPRPRPRPNCKPRP | -0.0223
92 | RRIRIRPPRLPRPRPRPCWDPRP | -0.0479
93 | RRIRWRPPRLPRPRPRPWWKPRP | -0.00743
94 | RRIRTRPPRLPRPRPRPRLCPRP | 0.317
95 | RRIRDRPPRLPRPRPRPTIGPRP | -0.0292
96 | RRIRKRPPRLPRPRPRPDQVPRP | 0.0449
97 | RRIRHRPPRLPRPRPRPNFFPRP | 0.307
98 | RRIRQRPPRLPRPRPRPWYPPRP | -0.278
99 | RRIRPRPPRLPRPRPRPDQIPRP | -0.265
100 | RRIRQRPPRLPRPRPRPVQHPRP | -0.0755

Row | Sequence | shrunken log2 fold change
101 | RRIRVRPPRLPRPRPRPWATPRP | -0.122
102 | RRIRFRPPRLPRPRPRPPCLPRP | -0.0576
103 | RRIRLRPPRLPRPRPRPVIIPRP | -0.242
104 | RRIRIRPPRLPRPRPRPDHCPRP | -0.0229
105 | RRIRTRPPRLPRPRPRPRWEPRP | 0.0443
106 | RRIRARPPRLPRPRPRPWTVPRP | -0.0846
107 | RRIRRRPPRLPRPRPRPCMYPRP | -0.0801
108 | RRIRIRPPRLPRPRPRPHSKPRP | -0.677
109 | RRIRCRPPRLPRPRPRPTFQPRP | -0.0555
110 | RRIRDRPPRLPRPRPRPNMGPRP | 0.102
111 | RRIRRRPPRLPRPRPRPYIKPRP | -0.509
112 | RRIRKRPPRLPRPRPRPKSTPRP | 0.0348
113 | RRIRNRPPRLPRPRPRPLGCPRP | -0.27
114 | RRIRHRPPRLPRPRPRPWMMPRP | -0.463
115 | RRIRIRPPRLPRPRPRPSFKPRP | -0.494
116 | RRIRVRPPRLPRPRPRPVWGPRP | 1.8
117 | RRIRWRPPRLPRPRPRPHRPPRP | -0.135
118 | RRIRKRPPRLPRPRPRPNYIPRP | -0.0745
119 | RRIRERPPRLPRPRPRPVTWPRP | -0.165
120 | RRIRCRPPRLPRPRPRPEQPPRP | 0.581
121 | RRIRGRPPRLPRPRPRPLYHPRP | 3.13
122 | RRIRCRPPRLPRPRPRPRMSPRP | 0.041
123 | RRIRQRPPRLPRPRPRPRINPRP | -0.184
124 | RRIRDRPPRLPRPRPRPYMVPRP | 0.0212
125 | RRIRQRPPRLPRPRPRPIQDPRP | 0.0208

Row | Sequence | shrunken log2 fold change
126 | RRIRERPPRLPRPRPRPMDMPRP | -0.189
127 | RRIRTRPPRLPRPRPRPENCPRP | 0.072
128 | RRIRQRPPRLPRPRPRPGKNPRP | -0.294
129 | RRIRFRPPRLPRPRPRPSPQPRP | 0.0415
130 | RRIRERPPRLPRPRPRPRRIPRP | -0.00822
131 | RRIRDRPPRLPRPRPRPCYLPRP | -0.345
132 | RRIRTRPPRLPRPRPRPWVCPRP | -1.58
133 | RRIRNRPPRLPRPRPRPKHDPRP | -0.287
134 | RRIRPRPPRLPRPRPRPCELPRP | -0.17
135 | RRIRYRPPRLPRPRPRPAVNPRP | 0.063
136 | RRIRMRPPRLPRPRPRPKSQPRP | 2.06
137 | RRIRPRPPRLPRPRPRPIFLPRP | 0.124
138 | RRIRNRPPRLPRPRPRPMMLPRP | -0.0295
139 | RRIRIRPPRLPRPRPRPGRPPRP | 0.398
140 | RRIRYRPPRLPRPRPRPVYIPRP | -1.27
141 | RRIRHRPPRLPRPRPRPDSWPRP | -0.0468
142 | RRIRARPPRLPRPRPRPFLKPRP | -0.349
143 | RRIRMRPPRLPRPRPRPWIEPRP | -0.092
144 | RRIRERPPRLPRPRPRPIDAPRP | 0.0409
145 | RRIRKRPPRLPRPRPRPPNEPRP | 1.68
146 | RRIRRRPPRLPRPRPRPERHPRP | 0.549
147 | RRIRQRPPRLPRPRPRPGYQPRP | -0.164
148 | RRIRVRPPRLPRPRPRPGLIPRP | -0.359
149 | RRIRNRPPRLPRPRPRPIYMPRP | -0.473
150 | RRIRLRPPRLPRPRPRPKNNPRP | -0.297

Reference: the supplement of paper PMC9112550, “Optimization of the antimicrobial peptide Bac7 by deep mutational scanning” (BMC Biology, 2022)
